Ends that are not written are not given here.
What was measured:
[1] = test system: Escherichia coli; assay: Antimicrobial activity test in liquid culture (growth by OD630); assay type: cell-based; design: key: +: Antimicrobial activity observed; -: No antimicrobial activity observed; conditions: Test conc. 25 µM; culturing 24 to 48 hours
Experimental: (§1) As a Comparative Example, a commercially available nisin A (manufactured by Sigma-Aldrich) was used. Firstly, each peptide was dissolved in MRS medium to prepare a solution of a concentration of 20 µM to 1000 µM. From the resultant, 10 µl was taken and mixed with various test bacteria and 90 µl of medium intended for culturing the test bacteria, followed by culturing for 24 hours to 48 hours. After culturing, OD630 was measured to check the number of bacteria. When OD630 increased or turbidity was visually observed as compared to the culture liquid before culturing, it can be determined that the test bacteria had grown. […] In the "SEQ ID NO or substance name of peptide" section in Table 5, each of "SEQ ID NO: 3 & SEQ ID NO: 4" and "SEQ ID NO: 13 & SEQ ID NO: 14" means that a combination of the two types of peptides were used in equimolar amounts. The results in Table 5 indicate that the polypeptides as set forth in SEQ ID NOs: 1 to 5, 13, and 14 were effective against gram-positive bacteria and some of these polypeptides were effective against gram-negative bacteria such as E. coli and fungi such as C. albicans.

[2] = test system: Candida albicans; assay: as above; assay type: cell-based; design: key: +: Antimicrobial activity observed; -: No antimicrobial activity observed; conditions: Test conc. 25 µM; culturing 24 to 48 hours
Experimental: as §1

[3] = test system: Streptococcus uberis; assay: as above; assay type: cell-based; design: key: +: Antimicrobial activity observed; -: No antimicrobial activity observed; conditions: Test conc. 25 µM; culturing 24 to 48 hours
Experimental: as §1

[4] = test system: Staphylococcus aureus; assay: as above; assay type: cell-based; design: key: +: Antimicrobial activity observed; -: No antimicrobial activity observed; conditions: Test conc. 25 µM; culturing 24 to 48 hours
Experimental: as §1

[5] = test system: Lactobacillus sakei; assay: as above; assay type: cell-based; design: key: +: Antimicrobial activity observed; -: No antimicrobial activity observed; conditions: Test conc. 25 µM; culturing 24 to 48 hours
Experimental: as §1

[6] = test system: Lactobacillus sakei (NBRC15893); assay: Wide pH-range stability test (spot-on-lawn antimicrobial activity after incubation in buffer); assay type: physicochemical; design: key: A: Good activity; B: Slight influence on activity; C: No activity; conditions: ten times the lowest concentration of Table 3, A = spot diameter 80% or more of control in water
Experimental: Antimicrobial activity of the antimicrobial peptide was evaluated by a spot-on-lawn method that involved spotting 10 µL of a test liquid 13 on the test bacteria (lawn) (on a soft agar medium 11) (Fig. 1). As the test bacteria, Lactobacillus sakei (NBRC15893) was used. The specific procedure is as follows. Firstly, the test bacteria that were cultured overnight were mixed and diluted with Lactobacilli AOAC agar (soft agar medium 11) in a density of 4×10^7 CFU/mL, and was spread over an MRS plate containing 2% agar (an agar medium 12). Test liquid 13 was spotted thereon, and incubated overnight at 30°C, followed by evaluation of the size of a growth inhibition circle 14 (Fig. 1). It can be determined that the larger the growth inhibition circle, the higher the antimicrobial activity. The fraction with highest antimicrobial activity as determined in the antimicrobial activity test was regarded as a purified active fraction and used in Experiment 4 and Experiment 5 described below. For the polypeptides as set forth in SEQ ID NOs: 1 to 5, 13, and 14 in Table 3, evaluation was carried out to see if they had antimicrobial activity over a wide range of pH. As a Comparative Example, a commercially available nisin A (manufactured by Sigma-Aldrich) was used. Firstly, each peptide was dissolved in the following buffer to prepare a solution of a concentration ten times the lowest concentration specified in Table 3: sodium phosphate buffer (50 mM, pH4), 1x phosphate buffer saline (pH7.4), ammonium chloride-ammonia buffer (50 mM, pH10.0). […] Antimicrobial activity was evaluated based on the size of the spot (the size of the growth inhibition circle). When the size of the spot was equivalent to that of the control (when the diameter of the spot was 80% or more of the control), it was rated as A, and when the size was relatively small but antimicrobial activity was still detected, it was rated as B. When the growth inhibition circle was not observed, it was rated as C. It can be determined that the peptides rated as A or B are stable at the test pHs. […]

[7] = test system: Lactobacillus sakei (NBRC15893); assay: Thermal stability test (spot-on-lawn antimicrobial activity after heat treatment); assay type: physicochemical; design: key: A: Good activity; B: Slight influence on activity; C: No activity; conditions: in water, ten times the lowest concentration of Table 3, A = spot diameter 80% or more of control with no heat treatment
Experimental: Antimicrobial activity of the antimicrobial peptide was evaluated by a spot-on-lawn method that involved spotting 10 µL of a test liquid 13 on the test bacteria (lawn) (on a soft agar medium 11) (Fig. 1). As the test bacteria, Lactobacillus sakei (NBRC15893) was used. The specific procedure is as follows. Firstly, the test bacteria that were cultured overnight were mixed and diluted with Lactobacilli AOAC agar (soft agar medium 11) in a density of 4×10^7 CFU/mL, and was spread over an MRS plate containing 2% agar (an agar medium 12). Test liquid 13 was spotted thereon, and incubated overnight at 30°C, followed by evaluation of the size of a growth inhibition circle 14 (Fig. 1). It can be determined that the larger the growth inhibition circle, the higher the antimicrobial activity. The fraction with highest antimicrobial activity as determined in the antimicrobial activity test was regarded as a purified active fraction and used in Experiment 4 and Experiment 5 described below. For the polypeptides as set forth in SEQ ID NOs: 1 to 5, 13, and 14 in Table 3, evaluation was carried out to see if they had antimicrobial activity after heat treatment. As a Comparative Example, a commercially available nisin A (manufactured by Sigma-Aldrich) was used. Firstly, each peptide was dissolved in water to prepare a solution of a concentration ten times the lowest concentration specified in Table 3. The test solution thus prepared was subjected to heat treatment at 80°C for 30 minutes, or at 100°C for 30 minutes, or at 121°C for 15 minutes. […] Antimicrobial activity was evaluated based on the size of the spot (the size of the growth inhibition circle); when the size of the spot was equivalent to that of the control (when the diameter of the spot was 80% or more of the control), it was rated as A, and when the size was relatively small but activity was still detected, it was rated as B. When the spot was not observed, it was rated as C. It can be determined that the peptides rated as A or B are stable at the test temperatures. […]

## nisin A (ITSISLCTPGCKTGALMGCNMKTATCHCSIHVSK; thioether (positions not given here); not fully specified (some residues, bridges); also: lantibiotic: thioether rings and dehydro residues not placed; UniProt P13068 24-57, looked up) [antimicrobial peptide produced by Lactococcus lactis]
[1]
  Antimicrobial activity, test bacteria Escherichia coli: -
[2]
  Antimicrobial activity, test bacteria Candida albicans: -
[3]
  Antimicrobial activity, test bacteria Streptococcus uberis: +
[4]
  Antimicrobial activity, test bacteria Staphylococcus aureus: +
[5]
  Antimicrobial activity, test bacteria Lactobacillus sakei: +
[6]; 1x phosphate buffer saline (pH7.4), 27°C for 24 hours
  pH Stability pH7: C
[6]; ammonium chloride-ammonia buffer 50 mM pH10.0, 27°C for 24 hours
  pH Stability pH10: C
[6]; sodium phosphate buffer 50 mM pH4, 27°C for 24 hours
  pH Stability pH4: A
[7]; 80°C for 30 minutes
  Thermostability 80°C: C
[7]; 100°C for 30 minutes
  Thermostability 100°C: C
[7]; 121°C for 15 minutes (autoclave)
  Thermostability 121°C: C
